Data from the supplement of paper PMC9112550, “Optimization of the antimicrobial peptide Bac7 by deep mutational scanning” (BMC Biology, 2022).

system: Escherichia coli TOP10; test: shrunken log2 fold change of peptide-encoding DNA abundance (4.5 h post-induction vs induction); higher = less antimicrobial activity (less host growth inhibition); conditions: time post-induction: 4.5 h; library: site-saturation at positions 5, 18, 19, 20
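Also: peptides expressed intracellularly from a pBAD plasmid library in pooled LB shake-flask culture, induced with 0.3% L-arabinose, DNA abundance read by NGS, three biological replicates, DESeq2 with apeglm shrinkage.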

| Sequence | shrunken log2 fold change |
| --- | --- |
| RRIRRRPPRLPRPRPRPVLVPRP | 0.487 |
| RRIRSRPPRLPRPRPRPDFCPRP | 0.0315 |
| RRIRLRPPRLPRPRPRPCNHPRP | -0.0991 |
| RRIRCRPPRLPRPRPRPRGFPRP | 0.249 |
| RRIRVRPPRLPRPRPRPQPSPRP | 0.00981 |
| RRIRDRPPRLPRPRPRPYKDPRP | -0.221 |
| RRIRFRPPRLPRPRPRPDLTPRP | -0.181 |
| RRIRHRPPRLPRPRPRPIGGPRP | 0.111 |
| RRIRSRPPRLPRPRPRPNSPPRP | -0.149 |
| RRIRYRPPRLPRPRPRPSGCPRP | -0.264 |
| RRIRTRPPRLPRPRPRPLNMPRP | 0.00244 |
| RRIRTRPPRLPRPRPRPKAEPRP | -0.000916 |
| RRIRYRPPRLPRPRPRPLKPPRP | -0.696 |
| RRIRHRPPRLPRPRPRPCGNPRP | -0.196 |
| RRIRSRPPRLPRPRPRPAFDPRP | 1.02 |
| RRIRCRPPRLPRPRPRPELGPRP | 0.211 |
| RRIRPRPPRLPRPRPRPTYAPRP | 0.133 |
| RRIRMRPPRLPRPRPRPREPPRP | 0.447 |
| RRIRSRPPRLPRPRPRPVHIPRP | -0.124 |
| RRIRIRPPRLPRPRPRPCQNPRP | -0.282 |
| RRIRVRPPRLPRPRPRPWDDPRP | -0.27 |
| RRIRERPPRLPRPRPRPMSVPRP | -0.158 |
| RRIRNRPPRLPRPRPRPWAIPRP | -0.179 |
| RRIRMRPPRLPRPRPRPYPHPRP | 0.00442 |
| RRIRNRPPRLPRPRPRPEQAPRP | 0.632 |

| Sequence | shrunken log2 fold change |
| --- | --- |
| RRIRARPPRLPRPRPRPGIQPRP | -0.041 |
| RRIRRRPPRLPRPRPRPAWYPRP | 0.176 |
| RRIRERPPRLPRPRPRPGEYPRP | -0.267 |
| RRIRLRPPRLPRPRPRPEIVPRP | 0.0118 |
| RRIRYRPPRLPRPRPRPYRGPRP | -0.765 |
| RRIRPRPPRLPRPRPRPSEDPRP | 0.485 |
| RRIRFRPPRLPRPRPRPETDPRP | 0.114 |
| RRIRSRPPRLPRPRPRPPGLPRP | 0.348 |
| RRIRERPPRLPRPRPRPPWHPRP | -0.0644 |
| RRIRERPPRLPRPRPRPHRTPRP | -5.56e-05 |
| RRIRGRPPRLPRPRPRPNTQPRP | 0.224 |
| RRIRGRPPRLPRPRPRPTINPRP | 0.477 |
| RRIRPRPPRLPRPRPRPDTTPRP | -0.156 |
| RRIRVRPPRLPRPRPRPTDLPRP | -0.101 |
| RRIRQRPPRLPRPRPRPFCTPRP | -0.246 |
| RRIRMRPPRLPRPRPRPMWCPRP | 0.283 |
| RRIRSRPPRLPRPRPRPQMQPRP | 0.00783 |
| RRIRDRPPRLPRPRPRPLRNPRP | 0.767 |
| RRIRMRPPRLPRPRPRPAIQPRP | -0.00069 |
| RRIRQRPPRLPRPRPRPEEYPRP | 0.0748 |
| RRIRLRPPRLPRPRPRPVYCPRP | -0.303 |
| RRIRHRPPRLPRPRPRPRHMPRP | -0.0251 |
| RRIRGRPPRLPRPRPRPAWWPRP | 1.39 |
| RRIRHRPPRLPRPRPRPHKEPRP | -0.00832 |
| RRIRGRPPRLPRPRPRPFMAPRP | 0.211 |

| Sequence | shrunken log2 fold change |
| --- | --- |
| RRIRHRPPRLPRPRPRPSGMPRP | 0.0613 |
| RRIRVRPPRLPRPRPRPEAKPRP | 0.293 |
| RRIRRRPPRLPRPRPRPEHWPRP | 0.315 |
| RRIRMRPPRLPRPRPRPQLTPRP | 0.743 |
| RRIRPRPPRLPRPRPRPIDGPRP | 0.023 |
| RRIRSRPPRLPRPRPRPWKNPRP | -0.0508 |
| RRIRRRPPRLPRPRPRPNITPRP | -0.128 |
| RRIRKRPPRLPRPRPRPMNLPRP | -0.223 |
| RRIRWRPPRLPRPRPRPDRDPRP | 0.0716 |
| RRIRDRPPRLPRPRPRPVMIPRP | 0.0644 |
| RRIRIRPPRLPRPRPRPAFLPRP | -0.279 |
| RRIRQRPPRLPRPRPRPFPIPRP | -0.0231 |
| RRIRLRPPRLPRPRPRPSNPPRP | -0.86 |
| RRIRDRPPRLPRPRPRPTFNPRP | -0.0925 |
| RRIRHRPPRLPRPRPRPDLIPRP | -0.0224 |
| RRIRKRPPRLPRPRPRPWCNPRP | -0.204 |
| RRIRKRPPRLPRPRPRPLDFPRP | 0.188 |
| RRIRHRPPRLPRPRPRPHWPPRP | -0.25 |
| RRIRDRPPRLPRPRPRPIGGPRP | 0.0266 |
| RRIRHRPPRLPRPRPRPMTPPRP | 0.0337 |
| RRIRMRPPRLPRPRPRPAKRPRP | 1.21 |
| RRIRHRPPRLPRPRPRPEKMPRP | -0.0669 |
| RRIRERPPRLPRPRPRPNRNPRP | -1.09 |
| RRIRIRPPRLPRPRPRPMQWPRP | -0.192 |
| RRIRTRPPRLPRPRPRPCCEPRP | -0.105 |

| Sequence | shrunken log2 fold change |
| --- | --- |
| RRIRDRPPRLPRPRPRPSHAPRP | 0.0738 |
| RRIRERPPRLPRPRPRPWMMPRP | -0.139 |
| RRIRLRPPRLPRPRPRPRPNPRP | 0.348 |
| RRIRERPPRLPRPRPRPELIPRP | 0.0254 |
| RRIRMRPPRLPRPRPRPMVRPRP | 0.0591 |
| RRIRTRPPRLPRPRPRPRPQPRP | 0.146 |
| RRIRGRPPRLPRPRPRPEMEPRP | -0.0341 |
| RRIRFRPPRLPRPRPRPCQHPRP | -0.397 |
| RRIRIRPPRLPRPRPRPQHSPRP | -0.463 |
| RRIRSRPPRLPRPRPRPEYWPRP | 0.191 |
| RRIRQRPPRLPRPRPRPCDTPRP | -0.435 |
| RRIRARPPRLPRPRPRPWWEPRP | 0.37 |
| RRIRHRPPRLPRPRPRPAQPPRP | 0.1 |
| RRIRYRPPRLPRPRPRPWAMPRP | -0.00232 |
| RRIRGRPPRLPRPRPRPIYIPRP | -0.0529 |
| RRIRSRPPRLPRPRPRPTRKPRP | 0.138 |
| RRIRSRPPRLPRPRPRPKAIPRP | 0.119 |
| RRIRWRPPRLPRPRPRPHCCPRP | -0.124 |
| RRIRGRPPRLPRPRPRPVPLPRP | 0.13 |
| RRIRGRPPRLPRPRPRPNGCPRP | 0.12 |
| RRIRSRPPRLPRPRPRPFIYPRP | -0.82 |
| RRIRNRPPRLPRPRPRPKYKPRP | -0.726 |
| RRIRGRPPRLPRPRPRPRKAPRP | 0.693 |
| RRIRWRPPRLPRPRPRPFASPRP | 0.177 |
| RRIRNRPPRLPRPRPRPHRDPRP | -0.0417 |

| Sequence | shrunken log2 fold change |
| --- | --- |
| RRIRHRPPRLPRPRPRPCMFPRP | -0.995 |
| RRIRNRPPRLPRPRPRPQFKPRP | -0.3 |
| RRIRCRPPRLPRPRPRPRCYPRP | -0.532 |
| RRIRERPPRLPRPRPRPTLTPRP | -0.0194 |
| RRIRVRPPRLPRPRPRPDQLPRP | 0.112 |
| RRIRERPPRLPRPRPRPFSRPRP | -0.0038 |
| RRIRPRPPRLPRPRPRPNWLPRP | 0.124 |
| RRIRNRPPRLPRPRPRPCFWPRP | -0.0333 |
| RRIRRRPPRLPRPRPRPPAKPRP | 1.35 |
| RRIRVRPPRLPRPRPRPLIAPRP | -0.0308 |
| RRIRKRPPRLPRPRPRPSFFPRP | -0.0585 |
| RRIRGRPPRLPRPRPRPLTKPRP | 0.664 |
| RRIRTRPPRLPRPRPRPCYSPRP | -0.0481 |
| RRIRARPPRLPRPRPRPKAKPRP | 0.287 |
| RRIRNRPPRLPRPRPRPHFQPRP | 0.0313 |
| RRIRRRPPRLPRPRPRPYSHPRP | -0.528 |
| RRIRHRPPRLPRPRPRPRPGPRP | 0.324 |
| RRIRYRPPRLPRPRPRPSPSPRP | -0.269 |
| RRIRQRPPRLPRPRPRPHGPPRP | -0.102 |
| RRIRHRPPRLPRPRPRPCMHPRP | -0.38 |
| RRIRMRPPRLPRPRPRPTQKPRP | 0.168 |
| RRIRGRPPRLPRPRPRPDDPPRP | 0.0369 |
| RRIRFRPPRLPRPRPRPILFPRP | -0.0517 |
| RRIRIRPPRLPRPRPRPYRTPRP | 0.0026 |
| RRIRWRPPRLPRPRPRPAMCPRP | 0.0884 |

| Sequence | shrunken log2 fold change |
| --- | --- |
| RRIRNRPPRLPRPRPRPGLHPRP | -0.0523 |
| RRIRGRPPRLPRPRPRPRSDPRP | 0.555 |
| RRIRHRPPRLPRPRPRPRPKPRP | -0.0808 |
| RRIRGRPPRLPRPRPRPIEYPRP | 0.0165 |
| RRIRRRPPRLPRPRPRPLVKPRP | -0.179 |
| RRIRVRPPRLPRPRPRPYQIPRP | 0.043 |
| RRIRGRPPRLPRPRPRPIFKPRP | 0.359 |
| RRIRQRPPRLPRPRPRPYNFPRP | -0.0266 |
| RRIRYRPPRLPRPRPRPYLNPRP | -0.802 |
| RRIRQRPPRLPRPRPRPMPMPRP | -0.00149 |
| RRIRNRPPRLPRPRPRPHHIPRP | -0.282 |
| RRIRTRPPRLPRPRPRPIYLPRP | -0.224 |
| RRIRTRPPRLPRPRPRPLAMPRP | 0.128 |
| RRIRQRPPRLPRPRPRPYPWPRP | -0.266 |
| RRIRVRPPRLPRPRPRPPNTPRP | -0.0576 |
| RRIRMRPPRLPRPRPRPNTMPRP | 0.0324 |
| RRIRGRPPRLPRPRPRPGDPPRP | 0.779 |
| RRIRIRPPRLPRPRPRPQYVPRP | -0.0421 |
| RRIRNRPPRLPRPRPRPKTRPRP | 0.138 |
| RRIRSRPPRLPRPRPRPEPKPRP | 0.954 |
| RRIRARPPRLPRPRPRPYFVPRP | -0.122 |
| RRIRKRPPRLPRPRPRPNMMPRP | 0.172 |
| RRIRQRPPRLPRPRPRPSHRPRP | -0.0821 |
| RRIRYRPPRLPRPRPRPGLHPRP | -0.265 |
| RRIRVRPPRLPRPRPRPSWTPRP | -0.0613 |
